Experiments:
[1] = molecular target: full length pHrodo-labelled monomeric (P301S) 2N4R tau (human) (UniProt P10636); assay: cell-based or functional assay
[2] = molecular target: full length pHrodo-labelled aggregated (P301S) 2N4R tau (human) (UniProt P10636); assay: cell-based or functional assay
full length pHrodo-labelled aggregated (P301S) 2N4R tau (human), sequence (P10636 other isoform, or with tags, fused parts or gaps P301S P301S): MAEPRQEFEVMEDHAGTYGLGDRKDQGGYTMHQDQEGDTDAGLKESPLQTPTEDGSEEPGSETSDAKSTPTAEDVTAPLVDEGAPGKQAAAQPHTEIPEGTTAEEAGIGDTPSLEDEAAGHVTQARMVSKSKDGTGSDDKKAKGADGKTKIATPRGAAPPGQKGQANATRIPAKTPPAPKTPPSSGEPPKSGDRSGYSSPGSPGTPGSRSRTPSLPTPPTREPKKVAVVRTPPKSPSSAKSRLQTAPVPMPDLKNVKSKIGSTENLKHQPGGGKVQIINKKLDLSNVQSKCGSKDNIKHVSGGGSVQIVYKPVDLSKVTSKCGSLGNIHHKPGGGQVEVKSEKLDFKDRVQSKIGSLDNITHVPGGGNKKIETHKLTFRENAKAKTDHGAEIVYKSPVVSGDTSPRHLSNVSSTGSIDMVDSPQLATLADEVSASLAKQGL

full length pHrodo-labelled monomeric (P301S) 2N4R tau (human), sequence (P10636 other isoform, or with tags, fused parts or gaps P301S P301S): as above

B1: Clone 1 rabbit monoclonal IgG (antibody, V domains shown)
VH: QSLEESGGGLVKPGGTLTLTCTVSGFSLNNYDMSWVRQAPGKGLEWIGTVSTTYRRYYASWAKGRFTISKTSSTTVDLKMTSLTTEDTATYFCAASGIWGPGTLVTVSL
VL: AQVLTQTTSPVSAAVGGTVTINCQSSQRVYSNYLAWYQQKPGQPPKRLIFLASTLESGVPSRFSGSGSGTQFTLTISDLECDDAATYYCAGTYTGSIWAFGGGTEVVVKG
- inhibition of uptake of monomeric tau by human iPSC-derived astrocytes [1]: 39.8 % inhibition
- inhibition of uptake of monomeric tau into human iPSC-derived neurons [1]: 41.2 % inhibition
- inhibition of uptake of aggregated tau by human iPSC-derived astrocytes [2]: 46.3 % inhibition
- inhibition of uptake of aggregated tau into human iPSC-derived neurons [2]: 65 % inhibition
- inhibition of uptake of pHrodo-labelled aggregated tau into human iPSC-derived neurons at 4 h [2]: 69 % inhibition

Reference: patent US20220265819A1
